Experimental findings from publication PMC4425231 are described below.

One test addresses p50 dimerization domain (UniProt P25799). As to the kind of experiment: AUC + SEC.
The target in test [1] is IκBβ (endogenous, MEF cytoplasmic extract) (mouse (endogenous in MEFs)) (UniProt Q60778). As to the kind of experiment: kinetic model fitted to immunoblot abundances of IκBs in NFκB-knockout MEFs. For orientation: In western blotting, separated proteins are transferred to a membrane and probed.
Test [2] has the same target. The experiment in a line: immunodepletion followed by deoxycholate EMSA. A general note: In EMSA bound probe runs differently from free probe, usually more slowly.

Sequence of IκBβ (endogenous, MEF cytoplasmic extract) (mouse (endogenous in MEFs)) (Q60778 whole entry): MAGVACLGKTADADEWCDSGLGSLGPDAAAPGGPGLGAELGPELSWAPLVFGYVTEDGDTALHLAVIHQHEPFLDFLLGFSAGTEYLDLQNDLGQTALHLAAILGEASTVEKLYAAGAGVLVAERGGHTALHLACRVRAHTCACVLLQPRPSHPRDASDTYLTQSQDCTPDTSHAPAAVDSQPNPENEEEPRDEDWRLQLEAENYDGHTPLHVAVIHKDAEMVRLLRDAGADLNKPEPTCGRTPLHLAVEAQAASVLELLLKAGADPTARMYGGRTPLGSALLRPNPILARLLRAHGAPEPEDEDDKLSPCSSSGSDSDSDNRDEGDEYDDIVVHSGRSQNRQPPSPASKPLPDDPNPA
Sequence of p50 dimerization domain (P25799 1-431): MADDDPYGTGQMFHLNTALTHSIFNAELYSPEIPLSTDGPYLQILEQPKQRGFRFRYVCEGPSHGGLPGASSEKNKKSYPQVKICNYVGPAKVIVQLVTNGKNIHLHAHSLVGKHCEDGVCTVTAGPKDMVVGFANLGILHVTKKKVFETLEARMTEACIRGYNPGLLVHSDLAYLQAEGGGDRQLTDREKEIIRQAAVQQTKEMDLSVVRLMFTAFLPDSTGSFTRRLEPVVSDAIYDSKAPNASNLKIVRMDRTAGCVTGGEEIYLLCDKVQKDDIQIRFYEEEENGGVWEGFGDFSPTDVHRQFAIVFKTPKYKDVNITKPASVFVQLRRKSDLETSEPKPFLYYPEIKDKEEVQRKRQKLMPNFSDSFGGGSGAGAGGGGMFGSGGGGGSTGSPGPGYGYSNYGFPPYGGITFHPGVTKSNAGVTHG

The term Kd denotes the concentration at which binding is half-saturated. Consider “RelA dimerization domain (from UniProt Q04207 1-549) (domain or fragment)”, for which, in the test with p50 dimerization domain, the Kd came to 10 nM.

The substance “RelA:RelA homodimer (endogenous, MEF cytoplasmic extract) (from UniProt Q04207 1-549) (complex)” came in with a Kd in test [1] of 0.0032 nM. In test [2], this substance gave a percent of the dimer bound to this IκB above 50%.
